# Biological target: T1, extended S2 fusion intermediate of the SARS-CoV-2 spike (after S1 dissociation) (SARS-CoV-2, Victoria (probably …, UniProt P0DTC2, strain))
# T1 construct: A conformational and proteolytic state of m1, seen between the virion and ACE2VLP membranes; also called extended intermediate; extended S2 intermediate
# Assay: cryo-electron tomography; virions pre-incubated with WS6 (200 ug/ml, 1 h, 37 °C), then ACE2VLPs and trypsin for 30 min at 37 °C, PFA-fixed
# Details: one partner purified
binder,measurement,value
"WS6 S2 stem-helix broadly neutralizing antibody (antibody, V domains shown, mouse-derived antibody; Whole antibody with two arms was used (200 ug/ml in PBS); also called WS6 S2 antibody; spike stalk antibody WS6; copies: 2 + 2) VH: EVQFQQSGTVLARPGASVKMSCKASGYTFTNYWIHWVKQRPGQGLEYIGGTYPGNGDTTYNQKFKGKAKVTAVTPTSTAYMDLSSLTNEDSAVYYCTRTGSYFDYWGQGTTLTVSS VL: QIVLTQSPAIMSASPGEKVTISCSATSSVSYIYWYQQRPGSSPKPWIYRTSNLASGVPVRFSGSGSGTSYSLTISNMEAEDAATYYCQQYQSYPPTFGAGTKLELK",binding result,binds
